Measured values published in paper PMC2912378 (PLoS ONE, 2010).

Biological target: T1, RelA (p65) (endogenous, BV-2 microglial cells) (mouse (endogenous in BV-2), UniProt Q04207 1-549)
T1 construct: NF-kappa B family member RelA (p65), endogenous in the murine microglial cell line BV-2; source: endogenous, BV-2 whole cell lysate
Assay: co-IP; whole cell lysates of BV-2 cells, untreated or treated with Tat (100nM) for 4h or 8h; immunoprecipitation with a RelA-specific antibody and Protein A/G+ agarose beads, 4°C, washed with ELB lysis buffer; immunoblot with RelB-specific antibody; densitometry normalised to precipitated RelA
Settings: partners not purified

T1 sequence (Q04207 whole entry): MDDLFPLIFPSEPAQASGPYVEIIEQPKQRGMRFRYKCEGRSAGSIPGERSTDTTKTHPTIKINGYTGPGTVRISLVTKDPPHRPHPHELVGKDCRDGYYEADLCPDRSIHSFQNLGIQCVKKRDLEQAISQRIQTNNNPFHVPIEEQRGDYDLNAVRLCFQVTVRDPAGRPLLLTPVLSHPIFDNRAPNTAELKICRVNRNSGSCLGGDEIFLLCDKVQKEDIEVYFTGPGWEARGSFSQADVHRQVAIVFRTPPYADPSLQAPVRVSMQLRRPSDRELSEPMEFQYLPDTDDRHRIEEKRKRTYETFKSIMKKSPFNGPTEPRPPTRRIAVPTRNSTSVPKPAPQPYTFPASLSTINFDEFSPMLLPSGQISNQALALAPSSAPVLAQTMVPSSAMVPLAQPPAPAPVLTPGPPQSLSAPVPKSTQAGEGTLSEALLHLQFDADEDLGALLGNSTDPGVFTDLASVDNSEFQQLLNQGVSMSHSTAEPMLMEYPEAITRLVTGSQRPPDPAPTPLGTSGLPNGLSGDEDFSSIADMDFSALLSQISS

B1: RelB (endogenous, BV-2 microglial cells) (natural protein, mouse (endogenous in BV-2), UniProt Q04863 1-558, looked up)
chain: MPSRRAARESAPELGALGSSDLSSLSLTVSRTTDELEIIDEYIKENGFGLDGTQLSEMPRLVPRGPASLSSVTLGPAAPPPPATPSWSCTLGRLVSPGPCPRPYLVITEQPKQRGMRFRYECEGRSAGSILGESSTEASKTLPAIELRDCGGLREVEVTACLVWKDWPHRVHPHSLVGKDCTDGVCRVRLRPHVSPRHSFNNLGIQCVRKKEIEAAIERKIQLGIDPYNAGSLKNHQEVDMNVVRICFQASYRDQQGHLHRMDPILSEPVYDKKSTNTSELRICRINKESGPCTGGEELYLLCDKVQKEDISVVFSTASWEGRADFSQADVHRQIAIVFKTPPYEDLEISEPVTVNVFLQRLTDGVCSEPLPFTYLPRDHDSYGVDKKRKRGLPDVLGELSSSDPHGIESKRRKKKPVFLDHFLPGHSSGLFLPPSALQPADSDFFPASISLPGLEPPGGPDLLDDGFAYDPSAPTLFTMLDLLPPAPPLASAVVGSGGAGATVVESSGPEPLSLDSFAAPGPGDVGTASLVGSNMFPNQYREAAFGGGLLSPGPEAT
notes: NF-kappa B family member RelB, endogenous in the murine microglial cell line BV-2; source: endogenous, BV-2 whole cell lysate
  fold increase of co-precipitated RelB (normalised to precipitated RelA) with Tat against untreated cells: 4 fold
